assay: soluble on expression in E. coli; label from the status in PepcDB or PDB records

| Sequence | soluble on expression in E. coli |
| --- | --- |
| MSLGEPMKQEKQQFIKTDWTIDMINRRQFEKYAIDILTATKDIHRGGWVERIDNKAWQYVRVYENGDIEVLITLQIIRFHKYFDTPVWLQFNPNHLLPADYVQLDHVMKYVDHSHLTRADLANDIYNINLQRYDFGLFGVTRDIYRSLSGDLETRYWGRRKSERQIRLYDKMREMKKHGKADDIPDGITDWWRLEFQFRGGKVESWQEEVMDKMQSFHVLAVDDNDDLSEIDKAILARVNADKFDFKRVGKRYAAKIRKMVRENVGFDTTVAELSLKTFNEQKDELQRQLDSMLAKYNIGAQTEEMTAYFEEELKQTGNLDFSVVESESALERNVIRNIAKTWREENSLTHRTNTEGHHHHHH | not soluble |
| MGSDKIHHHHHHMADNVKANKMNSQADDDIGFGIYTDIADLPMTGCPSYIEEGIGGVCESGTATIVVFDVPFQIVPNVVITLMPWQLVFIKEISEDFRITFFKISKDMFSETLSTLWRPASGFLLYMRKHIVSIPDGELIGRFLAYCNLLVYRMKHTPQNCRQESIMQLLRVYFWDVYTVYINDPQAEKSLKFTRKDEYVYQFVRLIIEDHSPDKDVAYFAQKLGISPKRLTNLIRSISGQSAREWIVYYTILEIKSLLRESSLDIKSIAARVNFPDQTTLSRYFRHYTGVTPSQYRKNIYF | not soluble |
| MGSDKIHHHHHHMKIVAIDTSTKQLSVALSDGQQILAEASYVTSLNHATKLMPLLERMMQEVNWSPRDLTRIVIADGPGSYTGLRIGATTAKTLAYTLGIDLVPVSTLELMAASAGSTGRIVAIQDARRGTGFVGFYEEGQLVGEEQHTVIADFVKTLPTDTKITGDTDKFTTELQSFTIVDPAFRAPRAGVLALLGAKREPVETHAFEPRYLRLAEAEAKWIEAQRHD | not soluble |
| MFYILNNVLKNIKTLDNVKSKFFLKDSFLKNKLKANNLDDNLSSHIFFNEIFVSLRDDEKKEEHKKVLLFNKVRNDKKHRKRAFQKRGYWKKMHYFIRKNNMMSYAFKVQNIDYEKIKKLKRGEVYSN | not soluble |
| MSYMLPHLHNGWQVDQAILSEEDRVVVIRFGHDWDPTCMKMDEVLYSIAEKVKNFAVIYLVDITEVPDFNKMYELYDPCTVMFFFRNKHIMIDLGTGNNNKINWAMEDKQEMVDIIETVYRGARKGRGLVVSPKDYSTKYRY | soluble |
| MGSDKIHHHHHHWQVTGSKTTQDGVEAARMCGIDSYPLRLEPQLVCDTEDLDALMNVDALVITLPARRTGAGEGFYLQAVQEIVDTALAYHIPRIVFTSSTSVYGNVNGTVKENSPRLPQTASGQVLKELEDWLHNLPGTSVDILRLAGLVGPSRHPGRFFAGKSAPDGQHVVNLVHLQDVVAAIELLLQAPKGGHIYNLCAPRHPARGLFYPQMARELGLPPPVFSDSPDGGQGKIVDGNRICNELGFEYQYPDPLVMPME | not soluble |
| MSLARLQFQLKVDGLEDESLVVRGFEGQESLSDSVWRCEPCYGFRYQVDLASALSNLTAEQFVDQTAHLTILRDGQVVQQINGIVRQLSKGDTGHRHTFYSLTLVPALERLSLRSNSRIFQQQSVPEIISILLQEMGIEDYAFALKRECAQREFCVQYRETDLQFLHRIAAEEGLVYSHLHEAQKHTLLFTDSSDSQPKLAKPVPYNALAGGEINLPYVVDLQFKTTAQVSHTELKDYSFKKPAYGFTQRTQGKDIAYQQPNYEHFDAPGRYKDDANGKAFSQIRLEYLRRDALLADAKSDEPLLLAGVRFDLQDHLDHAMNRDWLVVQANHQGTQPQALQEEGGSGATTYSNQLKLIPAHITWRARPCAKPQVDGPMIATVVGPQGEEIYCDNFGRVKVHFPWDRYSSSNEKSSCWVRVAQEWAGSQYGSMAIPRVGHEVIVSFLNGDPDQPIITGRTYHATNTAPYALPDHKTKTVLRTETHQGQGYNELSFEDQAGSEQILLHAQKDWDALIEHDHTEVIRHDQHLTVDNDRFTRIQRNQHLTVEGEVRSKIALDSSHEVGASLQHKVGQRIAVEAGKEISLKSGAKIVVEAGAELTLKAGGSFVKVDAGGVHLVGPAINLNAGGSAGSGSAYGGQLAAAPRMLAQAKPVAELVQPDIAASMQSGAARVIDVASLPTMMPSSANNTANDEPVAEEKTPERILKSDLLKPSDELEKLAKRQASAYRQGNHSDEVKLLQEALIKLGFDLGKAGADGDFGSKTKTAIEQFQKSYQPSHQTHPSYSIGAVDGIVGKGTLLALDEALMDGWVYENNIYQIWPLGKTSEKYESAGRGPGVISTGNGDYGGASYGCYQMSSNLGVVQKYIQSSKFKEFFSGLNPATKEFNVVWQDIASRYPQEFREEQHQFIKRTHYDIQIGHLRGKGLLFEHNRAAVHDLIWSTSVQFGGRTNLIFNALNGQNMESMTDKDIIILVQDYKLVNTERLFKSSPSWWSDLKKRAVSEKKALLELEIDGLEVDIKEGGSHHHHHH | not soluble |
| MQDWWEADNRLADWLSMILIQRTIEKNAKQALANLGPHLDLESLIGMDMATLEEYIYPAGFYKQKSIYIKALIKWFHGHGASLDKFQTYSTEDLRKELLGIKGVGEETADAMLLYIFERNVFIADLEHHHHHH | not soluble |
| MRDMIIVVPIGEVPSDVLSFLSENIESFYMKFGIGVKIIGSLPISAFSHAYDFYRNQYLARHFLPALSIIRRDYKALAVMGVTEVDLYESGLNFIFGIAHPGFGVALISLHRLYPEFYGEPPDRKLLKERALKEAMHELGHVFGLEHCPNPKCVMHFSNSIIDTDIKSWMYCKNCLRKLEERLGRGYVRGRTLEHHHHHH | not soluble |
| SPSDVLVIENKHLTKEWPSGGQMMVNNLTAKYTSDGRAVLQDLSFSVNAGQRVGLLGRTGAGKSTLLSALLRLLSTEGEIQIDGISWNSVSLQKWRKAFGVIPQKVFVFSGTFRKNLDPYEQWSDEEIWKVTEEVGLKSMIEQFPDKLNFVLVDGGYILSNGHKQLMCLARSILSKAKILLLDEPTAHLDPVTFQIIRKTLKHTFSNCTVILSEHRVEALLECQQFLVIEGCSVKQFDALQKLLTEASLFKQVFGHLDRAKLFTAHRRNSSKRKTRPKISALQEEAEEDLQETRL | soluble |
| MTAESGGRDWTGADLAVVVGDYVAQLEKVLAGKPVDRAAHDRTVRFVTGKADGPISWKQGEISAVLSLIGVPILKDQPPRWAYDNALLDAVEEQLAAKPALLAAAVRPAALFTAPSAVPLIEAAPPKPMPMTQRLIQAIQRFDMGSREADDRFLKGLGIASIVAHEARRLSDRGRPDLAGAIRPARGGDPEGCDVISFGLDEIPRLIVVKTTLAGEVAPFGLSQAEYELSRAQPHAFRIRRVYDLLGEARFYRLKPPFGLEHHHHHH | not soluble |
| MGSDKIHHHHHHMAKNKQEDIFDAAMQLFAERGYDGTTIPMIAEKAKVGAGTIYRYFENKEALVNSLFSKSMLQLSEMIKTDFPVEANIREQFSHTYNRLFEFARNNVDAFLFTNSHCDSYFLDEQSKKIFDDFIGFFMNIIEDGIVKGLLRPLPPVALIIIVYQPLEKLIKVIATGQLEYSKELVKELEESSWNAIRII | not soluble |
| MGSDKIHHHHHHMNWMDQPDLYSRYKIFLEILQSKEHISLFDPRLKRYTDILIDLEKPFTTWSTPNHIILVHKTLCLRHFPNKYESSAKRPVLILPPQAGHHSNLADYSPAQSLVRVFHRYGYDVYVTQWLSATTEYKDLGIEDYIRLTDEAVEEVRKRTGVYKIHLVGQCQGGWQASIYTSLFPDKISTLVSAAAPIDVNAKPSPIVEYAQKLSIDVFRFMVNSGGGVMPGKFILQGFKSMQPEEHYVRKYFRLWQMIKEGDEDGVKRFIHFENWYQYTQNLPGRFYLEIVKNIFKENNLTKPGSFQLDGRPVDLRNISCPVIIMAGKKDHITPPEQAFALKNYISTPAADVIEILTEGGHIGTLMGTESLREDWTAVNEVLKLAI | not soluble |
| MGSHHHHHHDITSLYKKAGSENLYFQGMKFSEECRSAAAEWWEGSFVHPFVQGIGDGTLPIDRFKYYVLQDSYYLTHFAKVQSFGAAYAKDLYTTGRMASHAQGTYEAEMALHREFAELLEISEEERKAFKPSPTAYSFTSHMYRSVLSGNFAEILAALLPCYWLYYEVGEKLLHCDPGHPIYQKWIGTYGGDWFRQQVEEQINRFDELAENSTEEVRAKMKENFVISSYYEYQFWGMAYRKEGWSDSAIKEVEECGASRHNG | soluble |
| YIDVKRMMYTLIVSFVFSRVVDSVLDGAYAAKGILIVSNHSEEIGQSLMASLERGVTYLNGEGAYSQVEKRVLYTVVSPREIMEVKRIANEIDEKAFVSIINVHEAIGEGFTYAKPSKQRRFKLKQ | not soluble |
| AAPYRCPLCRAGCPSLASMQAHMRGHS | soluble |
| MRRLVLLLALCFSCSFAQYGLYGSGYNGYGGYGSGYGTGYGMGYGMGYPMNPYMNQVYGYGSNPMMSGGGGMYGAGGCMDLSPQCSVWASTGQCSTNPMMMRQTCAMSCGTCSTGVGALGSMGSYNPFGGYGGMGYPQAGLLDPLAQFIGRSIYETGILRQPTPSSSSKSIGILTKAKSEQLPSR | not soluble |
| MGSDKIHHHHHHMTTKYQTIISNIEQDIQKQRLKKGDKLPSIRVLSKVYYCSKDTVQRALLELKYRHLIYAVPKSGYYVLGNVSMPDNVLNLSLEDYNNMAYEDFRLCLNEALSAKDKYLFHYYHKTEGLEELREALLLYLAENSVYSNKDQLLITSGTQQALYILSQMPFPNTGKTILLEKPTYHRMEAIVAQLGLPYQTISRHFNGLDLELLESLFQTGDIKFFYTISRFSHPLGLSYSTKEKEAIVRLAQRYQVYILEDDYLGDFVKLKEPPIHYYDTHHRIIYLKSFSMSVFPALRIGALVLPSGLKPHFLTQKSLIDLDTNLLMQKALALYLENGMFQKNLRFIKRYLKQRERQLALFLKQNCPDIHYQLTPTHLVIDYTTSDSYRNFTLDKSDRIIITGKKRYLSITINQQIQSKLNSLIKNTCGKSN | not soluble |
| MGSDKIHHHHHHMAIRTCFCTGVLPVTMDDLTSGYNIAEILTLEPEFLSMLGFTYKEAEVYLRYVLDTYTEGQDRFDDVWQLIVNNYDGYRFLPEAEPLFNSTILTYFFKKFAVRKGGIPSELVDENLRTDIGWIRHLTLSLENAKEMQDALVIDDELSYNVSDLSSKFNKRKFFDKSIYPVSLFYLGMTTLRSNYRMVLPNLTMRSIYMDYYNEMNHIEGNAQRYVPTYERFTEERRFEPLVQNYFEQYLGQFPAQVFDKINENFIRCSFFELCSRYLSSCYTFAIEQNNSAGRSDFEMTGIPGTDYYKDDRLAEFKYFKAKEAERMLALSDPRPEDVAQVLAYAKDTKVKFPHYHVRSYIVYICANKGWKCWEVTP | not soluble |
| MGSDKIHHHHHHMRKLGWKELDIILVTGDAYVDHPSFGVAFIGHYLVSHGFKVGIIAQPDWRTEKDITRLGRPRLFFGVTAGNVDSMVANYTASKKKRKTDDYTPGGIGGKRPDRATIVYTNLIKRFFPEVPVVLGGLEASLRRFAHYDWWSDRVRKSVLVDSKADLLVYGMGEKAVLGIAQILSRTGDIEKCKSIRGVVWWASQKPEEGIELPSYDEISENPEKYAEALKLQTWYTDPYKNIPIYQRQDTRYVVQNPPQPPLSQEELDRLYLLPFEREVHPFYAKMGKVKAIETVKFSITAVRGCFGNCSFCALTQHQTTHVSYRSKDSILEEVRILTKKKDFKGTITDVGGPTANLYGSGCSIRETKGQCQKFCLYPIVCKVVRPNHDEFISLLESIRQIPGVRNVFVSSGIRHDFVFAEKDPDVFIRELVKYTPGQLKLAPEHAHPKVLSLMRKPPVELFLEFKKRFETLAKKMGKRKYVIGYFIVGHPGEGWRENNYLRDFILKHLGYFPQQIQIFTPTPGTVSTAMYYSGVDPFTGEKVHVERSLKVRNKMKENVLFKKKGREKR | not soluble |
| KGSYDLIFGDKNTKNYYAKFAKDHQTHLYQKIKESKDEQFRFVETQETTNNLGN | soluble |

— the DeepSol protein solubility set
